Data from paper PMC12266039.

Experiments:
[1] = target: human FcRn receptor (neonatal Fc receptor) (human) (UniProt P55899); assay: SPR
[2] = target: BG505 DS-SOSIP.664 (gp140 trimer) (HIV (BG505)) (UniProt Q2N0S6); assay: SPR

Sequence of griffithsin (GRFT) (P84801 whole entry): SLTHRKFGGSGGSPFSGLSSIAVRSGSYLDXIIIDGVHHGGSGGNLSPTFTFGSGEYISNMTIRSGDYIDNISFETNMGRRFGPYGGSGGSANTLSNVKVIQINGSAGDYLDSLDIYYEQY

Substance | Kd [1] | koff [2] | kon [2]
VRC01 (standard anti-HIV broadly neutralizing antibody) | 78.2 nM |  | 
griffithsin (GRFT) (from UniProt P84801 1-121) (natural protein) |  | 0.0136 s⁻¹ | 1.42e+07 M⁻¹ s⁻¹
